The results in this text go back to patent publication US20230242616A1, “CHEMOKINE-SELECTIVE CXCR4 ECTODOMAIN-DERIVED (POLY)PEPTIDE” (Ludwig-Maximilians-Universität München, priority 2020, published 2023).

Assay [1] deals with msR4M-L1 (CXCR4-ECL1[97-110]-6-Ahx-12-Ado-ECL2[182-196]) (human). Put plainly: fluorescence spectroscopic titration, self-assembly; Fluos-msR4M-L1 titrated with unlabelled msR4M-L1.
The target of assay [2] is CXCL12 (human) (UniProt P48061). Description: fluorescence spectroscopic titration, apparent KD; Fluos-labelled peptide (5 nM) titrated with CXCL12.
Assay [3] concerns the target human macrophage migration-inhibitory factor (MIF) (human) (UniProt P14174). Put plainly: fluorescence spectroscopic titration, apparent Kd; Alexa-488-MIF titrated with ngm.
The target is the same in assay [4]. Put plainly: cell-based or functional assay.
Assay [5] has the same target. Put plainly: fluorescence spectroscopic titration.
Assay [6] has the same target. Description: fluorescence spectroscopic titration, apparent Kd; Fluos-ngm titrated with MIF.
Assay [7] shares this target. Description: fluorescence spectroscopic titration of Alexa-MIF with increasing ngm-L5 [panel D].

human macrophage migration-inhibitory factor (MIF) (human), sequence (P14174 2-115 limits assumed): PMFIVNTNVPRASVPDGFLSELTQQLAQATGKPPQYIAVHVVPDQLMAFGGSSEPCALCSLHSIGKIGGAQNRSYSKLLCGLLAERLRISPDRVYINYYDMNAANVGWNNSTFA
CXCL12 (human), sequence (P48061 22-89 limits assumed): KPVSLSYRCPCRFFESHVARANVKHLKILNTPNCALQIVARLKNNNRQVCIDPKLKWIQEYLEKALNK

“msR4M-L1 (CXCR4-ECL1[97-110]-6-Ahx-12-Ado-ECL2[182-196]) (designed binder)”: the Kd in assay [1] was 142 nM; in assay [2], above 5000 nM.

With “msR4M-L3 ([ECL1(102-110)]-6 Ahx-12 Ado-[ECL2(187-195)]) (designed binder)”, the Kd in assay [3] amounted to 11.7 nM; in assay [5] it was 14 nM; in assay [6] it was 44.4 nM. Also, in assay [4], the Atherogenic inhibitory activity (Dil-LDL uptake) (% of full-length msR4M-L1) was found to be 80.

For “msR4M-L4 ([ECL1(102-110)]-8 Aoc-[ECL2(187-195)]) (designed binder)”, the results for the Kd in assay [3], in assay [5] and in assay [6] were 43.2 nM, 12 nM and 11.9 nM, respectively. The substance also returned an Atherogenic inhibitory activity (Dil-LDL uptake) (% of full-length msR4M-L1) in assay [4] of 80.

On to “msR4M-L5 ([ECL1(102-110)]-O1pen-O1pen-[ECL2(187-195)]) (designed binder)”, for which the Kd in assay [3] came out at 41.8 nM; in assay [5] it was 14 nM; in assay [6] it was 14.3 nM. The same substance registered an Atherogenic inhibitory activity (Dil-LDL uptake) (% of full-length msR4M-L1) in assay [4] of 30. The IC50 of inhibition of MIF-triggered Dil-oxLDL uptake (foam cell assay) in assay [4] turned out to be 69.7 nM. In assay [7], the EC50 (read off the curve) came to 40 nM.
